According to US20220160843A1 (priority 2019, published 2022):

Legend:
P. aeruginosa [1] = experiment: Minimal inhibitory concentration (MIC), modified CLSI broth microdilution in CAA or CAA/HuS; format: cell-based, Pseudomonas aeruginosa
[2] = tested on: P. aeruginosa strain ATCC 17647; experiment: Minimal Biofilm Eradicating Concentration (MBEC), Calgary Biofilm Device; format: cell-based, Pseudomonas aeruginosa; conditions: 24 h biofilm, 24 h treatment; minimum concentration removing >95% of biofilm biomass (crystal violet)
Source text: All samples were examined in triplicate.

human erythrocytes = format: cell-based
Description: The hemolytic activity of the GN lysins was measured as the amount of hemoglobin released by the lysis of human erythrocytes (30). Briefly, 3 ml of fresh human blood cells (hRBCs) obtained from pooled healthy donors (BioreclamationIVT) in a polycarbonate tube containing heparin was centrifuged at 1,000×g for 5 min at 4° C. The erythrocytes obtained were washed three times with phosphate-buffered saline (PBS) solution (pH 7.2) and resuspended in […]. […] Intact erythrocytes were pelleted by centrifugation at 1,000×g for 5 min at 4° C., and the supernatant was transferred to a new 96-well plate. The release of hemoglobin was monitored by measuring the absorbance at 570 nm.

P. aeruginosa [3] = experiment: Time-kill assay of GN lysin activity; format: cell-based, Pseudomonas aeruginosa; conditions: for Log10 CFU/mL T = 3 hr / Log10 CFU/mL T = l hr: lysin 10 μg/mL, T = 0 7.8; for Log10 CFU/mL T = 3 hr: buffer control 7.2, limit of detection 3.7; for Log10 CFU/mL T = l hr: buffer control 7.7
Description: All treatments were incubated at 37° C. with aeration.

[4] = tested on: carbapenem-resistant clinical strain, WC-452; experiment: Checkerboard assay to examine synergy with antibiotics in CAA/HuS; format: cell-based, P. aeruginosa
[5] = tested on: carbapenem-resistant P. aeruginosa strains; experiment: Resensitization of carbapenem-resistant clinical strains using carbapenems in combination with lysins; format: cell-based
Description: The checkerboard assays is based on a modification of the CLSI method for MIC determination by broth microdilution (26, 29). Checkerboards were constructed by first preparing columns of a 96-well polypropylene microtiter plate, in which each well had the same amount of antibiotic diluted 2-fold along the horizontal axis. […] Summation fractional inhibitory concentrations (ΣFICs) were calculated for each drug and the minimum ΣFIC value (ΣFICmin) was used to determine synergy. ΣFICs were calculated as follows: ΣFIC=FIC A+FIC B, where FIC A is the MIC of each antibiotic in the combination/MIC of each antibiotic alone, and FIC B is the MIC of each GN lysin in the combination/MIC of each GN lysin alone. The combination is considered synergistic when the ΣFIC is ≤0.5, strongly additive when the ΣFIC is >0.5 to <1, additive with the ΣFIC is 1−<2, and antagonistic when the ΣFIC is ≥2.
Up to seven carbapenem-resistant isolates were assessed. […] See Clinical and Laboratory Standards Institute (CLSI), CLSI. […] M100 Performance Standards for Antimicrobial Susceptibility Testing; 29th Edition. Clinical and Laboratory Standards Institute, Wayne, Pa.

[6] = HEPES buffer, ‡ indicates bactericidal activity

B1: GN123: Native lysin, GenBank YP_009217242.1, SEQ ID NO: 27 (protein)
chain: MTLLKKGDKGDAVKQLQQKLKDLGYTLGVDGNFGNGTDTVVRSFQTKMKLSVDGVVGNGTMSTIDSTLAGIKAWKTSVPFPATNKSRAMAMPTLTEIGRLTNVDPKLLATFCSIESAFDYTAKPYKPDGTVYSSAEGWFQFLDATWDDEVRKHGKQYSFPVDPGRSLRKDPRANGLMGAEFLKGNAAILRPVLGHEPSDTDLYLAHFMGAGGAKQFLMADQNKLAAELFPGPAKANPNIFYKSGNIARTLAEVYAVLDAKVAKHRA
modifications: Pseudomonas phage PhiPA3
MIC (μg/mL) in CAA (P. aeruginosa [1]; CAA media): 2 µg/mL
MIC (μg/mL in CAA/HuS) (P. aeruginosa [1]; CAA supplemented with 25% human serum): 128 µg/mL
MBEC [2]: 4 µg/mL
hemolytic activity (human erythrocytes): no hemolytic activity whatsoever
bactericidal activity in the time-kill assay format (P. aeruginosa [3]; 3-hour timepoint, 10 μg/mL, in either CAA/HuS or HEPES buffer): bactericidal activity
Log10 CFU/mL T = 3 hr (P. aeruginosa [3]; CAA/HuS, ‡ indicates bactericidal activity): <3.7‡ Log10 CFU/mL
Log10 CFU/mL T = l hr (P. aeruginosa [3]; CAA/HuS): 6.7 Log10 CFU/mL
Log10 CFU/mL T = 3 hr (P. aeruginosa [3]; [6]): <3.7‡ Log10 CFU/mL
Log10 CFU/mL T = l hr (P. aeruginosa [3]; [6]): 5.6 Log10 CFU/mL
FICI, Fosfomycin ([4]; lysin + fosfomycin): 0.250
FICI, Gentamicin ([4]; lysin + gentamicin): 0.375
FICI, Imipenem ([4]; lysin + imipenem): 0.188
FICI, Meropenem ([4]; lysin + meropenem): 0.125
FICI, Piperacillin ([4]; lysin + piperacillin): 0.500
GN123 Alone ([5]; isolate PA19, MIC of GN123 alone (imipenem checkerboard)): 8 µg/mL
GN123 Alone ([5]; isolate PA19, MIC of GN123 alone (meropenem checkerboard)): 8 µg/mL
GN123 Combination ([5]; isolate PA19, MIC of GN123 in combination with imipenem): 0.125 µg/mL
GN123 Combination ([5]; isolate PA19, MIC of GN123 in combination with meropenem): 0.25 µg/mL
FICI ([5]; isolate PA19, imipenem + GN123): 0.03
FICI ([5]; isolate PA19, meropenem + GN123): 0.046
GN123 Alone ([5]; isolate PA20, MIC of GN123 alone (imipenem checkerboard)): 16 µg/mL
GN123 Alone ([5]; isolate PA20, MIC of GN123 alone (meropenem checkerboard)): 16 µg/mL
GN123 Combination ([5]; isolate PA20, MIC of GN123 in combination with imipenem): 2 µg/mL
GN123 Combination ([5]; isolate PA20, MIC of GN123 in combination with meropenem): 1 µg/mL
FICI ([5]; isolate PA20, imipenem + GN123): 0.188
FICI ([5]; isolate PA20, meropenem + GN123): 0.094
GN123 Alone ([5]; isolate PA21, MIC of GN123 alone (imipenem checkerboard)): 8 µg/mL
GN123 Alone ([5]; isolate PA21, MIC of GN123 alone (meropenem checkerboard)): 8 µg/mL
GN123 Combination ([5]; isolate PA21, MIC of GN123 in combination with imipenem): 1 µg/mL
GN123 Combination ([5]; isolate PA21, MIC of GN123 in combination with meropenem): 1 µg/mL
FICI ([5]; isolate PA21, imipenem + GN123): 0.141
FICI ([5]; isolate PA21, meropenem + GN123): 0.156
GN123 Alone ([5]; isolate PA22, MIC of GN123 alone (imipenem checkerboard)): 16 µg/mL
GN123 Alone ([5]; isolate PA22, MIC of GN123 alone (meropenem checkerboard)): 16 µg/mL
GN123 Combination ([5]; isolate PA22, MIC of GN123 in combination with imipenem): 1 µg/mL
GN123 Combination ([5]; isolate PA22, MIC of GN123 in combination with meropenem): 1 µg/mL
FICI ([5]; isolate PA22, imipenem + GN123): 0.188
FICI ([5]; isolate PA22, meropenem + GN123): 0.125
GN123 Alone ([5]; isolate PA23, MIC of GN123 alone (imipenem checkerboard)): 8 µg/mL
GN123 Alone ([5]; isolate PA23, MIC of GN123 alone (meropenem checkerboard)): 8 µg/mL
GN123 Combination ([5]; isolate PA23, MIC of GN123 in combination with imipenem): 2 µg/mL
GN123 Combination ([5]; isolate PA23, MIC of GN123 in combination with meropenem): 1 µg/mL
FICI ([5]; isolate PA23, imipenem + GN123): 0.281
FICI ([5]; isolate PA23, meropenem + GN123): 0.156
GN123 Alone ([5]; isolate PA24, MIC of GN123 alone (imipenem checkerboard)): 16 µg/mL
GN123 Alone ([5]; isolate PA24, MIC of GN123 alone (meropenem checkerboard)): 16 µg/mL
GN123 Combination ([5]; isolate PA24, MIC of GN123 in combination with imipenem): 2 µg/mL
GN123 Combination ([5]; isolate PA24, MIC of GN123 in combination with meropenem): 0.5 µg/mL
FICI ([5]; isolate PA24, imipenem + GN123): 0.188
FICI ([5]; isolate PA24, meropenem + GN123): 0.094
GN123 Alone ([5]; isolate WC-452, MIC of GN123 alone (imipenem checkerboard)): 16 µg/mL
GN123 Alone ([5]; isolate WC-452, MIC of GN123 alone (meropenem checkerboard)): 16 µg/mL
GN123 Combination ([5]; isolate WC-452, MIC of GN123 in combination with imipenem): 2 µg/mL
GN123 Combination ([5]; isolate WC-452, MIC of GN123 in combination with meropenem): 1 µg/mL
FICI ([5]; isolate WC-452, imipenem + GN123): 0.188
FICI ([5]; isolate WC-452, meropenem + GN123): 0.125
resensitization of carbapenem-resistant isolates to IPM and MEM ([5]; synergistic combinations with imipenem or meropenem, breakpoints ≤2 sensitive, 4 intermediate, ≥8 resistant): reductions of IPM and MEM MICS to below breakpoint values
